These are literature values, as cited in publication PMC2846628.

Usually Kd stands for the constant that tells how readily two partners part at equilibrium.

The data set has as its target Cdc25 phosphopeptide (Homo sapiens). Nature of the data set: NMR titration.

Take Pin1 1-163 (from UniProt Q13526): the dissociation constant (Kd) is 8 µM.
